Consider 6 variants from FireProtDB (doi:10.1021/bi00123a006).

B1: Ribonuclease, P00648 (parent)
chain: MMKMEGIALKKRLSWISVCLLVLVSAAGMLFSTAAKTETSSHKAHTEAQVINTFDGVADYLQTYHKLPDNYITKSEAQALGWVASKGNLADVAPGKSIGGDIFSNREGKLPGKSGRTWREADINYTSGFRNSDRILYSSDWLIYKTTDHYQTFTKIR

The variants in the data set derive from B1. Particulars: Bacillus amyloliquefaciens, 25 °C, Urea, NMR, NaCl 1 M, structure 1BNI, whole UniProt chain shown.

In the case of G81H, for the setting “pH 4.4, Sodium acetate 30 mM”, the “ddG of mutation (higher = less stable)” value was 2.6 kcal/mol and the unfolding free energy came to 5.53 kcal/mol. Under “pH 8.9, Tris 30 mM”, the “ddG of mutation (higher = less stable)” value was 3.15 kcal/mol and the unfolding free energy stood at 4.9 kcal/mol.

On to T53H, for which, under “pH 4.4, Sodium acetate 30 mM”, the “ddG of mutation (higher = less stable)” value stood at 2.65 kcal/mol and the unfolding free energy turned out to be 5.48 kcal/mol. For the same variant, under “pH 8.9, Tris 30 mM”, the “ddG of mutation (higher = less stable)” value amounted to 1.56 kcal/mol and the unfolding free energy was 6.49 kcal/mol.

For the variant T73H D101N, under “pH 4.4, Sodium acetate 30 mM”, the “ddG of mutation (higher = less stable)” value was 5.74 kcal/mol and the unfolding free energy stood at 2.39 kcal/mol. In addition, for the setting “pH 8.9, Tris 30 mM”, the “ddG of mutation (higher = less stable)” value turned out to be 4.27 kcal/mol and the unfolding free energy worked out at 3.78 kcal/mol.

On to W141L, for which the unfolding free energy (pH 5.9, MES 30 mM) was 7.67 kcal/mol and the unfolding free energy (pH 8.9, Tris 30 mM) is 7.41 kcal/mol. For the same variant, where the note is “pH 8.9, Tris 30 mM”, the “ddG of mutation (higher = less stable)” value was 0.64 kcal/mol.

On to H65G W141L, for which the unfolding free energy (pH 5.9, MES 30 mM) was determined as 8.11 kcal/mol. Where the note is “pH 8.9, Tris 30 mM”, the “ddG of mutation (higher = less stable)” value was -0.33 kcal/mol and the unfolding free energy stood at 8.38 kcal/mol.

Regarding D101N, under “pH 4.4, Sodium acetate 30 mM”, the “ddG of mutation (higher = less stable)” value turned out to be 2.65 kcal/mol and the unfolding free energy came to 5.48 kcal/mol. Under “pH 8.9, Tris 30 mM”, the “ddG of mutation (higher = less stable)” value amounted to 2.32 kcal/mol and the unfolding free energy amounted to 5.73 kcal/mol.
